assay: yeast display, Sf9 membrane polyspecificity reagent, FACS + sequencing; frameworks hold sequencing errors
Summary of the method: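 A nanobody's polyreactivity label depends on the gate it was sorted from. Yeast display cells were stained with 10% biotinylated, detergent-solubilized Sf9 membrane reagent for 1 hour at 4 °C, enriched on streptavidin microbeads and sorted by FACS. The low and high (top ~1%) gates were set on anti-HA fluorescence for expression and streptavidin fluorescence for reagent binding.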

Sequence | polyreactivity (PSR sort gate)
QDQLVESGGGLVQAGGSLRISCAASGSIFTYNAMGWYREAPGKERELVAAINTSGSTNYADSVKGRFTISRDNAKNTVYLQKNSLKPEDTAVYYCAADYPYWRRPYSRYGYWGQGTQVTVSS | low polyreactivity
QDQLVESGGGLVQAGGSLRISIAASARTFRDYVMGWSRQAPGKERELVAAISTRGASTYYADSVKGRFTISRDNAKNTVYLQMNTLKPEDTADYYCAARSTRRGNEYDYWGQGTQVTVSS | high polyreactivity
QDQLVESGGGLVQAGGSLRLICAASASTFTRYAMGWYRQAPGKERELVACITGRGGSTYYADSVKGRFPISRDYAKNTVYLQMNCLKPEDTAVYYCARAEGKCPYSRYWPYRGGYDYWGQGTQVTRSS | high polyreactivity
QDQLVESGGGLVQAGGSLRLICAASGRTFNRYGMGWNRQATGKERELVASITSGGSTNYADSVKGRFTISRDNAKNNVYLQMNSLKLEDTAVYYCAKRSIGRYPRTYDYWGQGTQVTVSS | low polyreactivity
QDQLVESGGGLVQAGGSLRLICAASGRTFYPYVMGWYRQAPGKERDLVAAITDSGGNTYYADSVKGRFTISRDNAKNTVYLQMNSLKPEDTAVYYCNARFYYPSRRGTFQYNYWGQGTQVTVSS | low polyreactivity
QDQLVESGGGLVQAGGSLRLICAASGYTFGHYVMGWYRQAPGKERELVAAITLSGGGTYYADSVKGRFTISRDNAKNTVYLQMNCLKPEDTAVYYCAAVGGEHAKKTYSRYKVDYWGQGTQVTVSS | low polyreactivity
QDQLVESGGGLVQAGGSLRLRCAASGFIFRYYAMGWYRQAPGKERELVAAIDYSGGSTNYADSVKRRFTISRDNAKNTVYLQMNSLKPEDTAVYYCNAEYTWHRGYDYWGQGTQVTVSS | low polyreactivity
QDQLVESGGGLVQAGGSLRLRCAASGRTFEGNAMGWYRQAAGTEGELVAAMTSGGPTNSADSVKGRFTISRDNAKNTVYFQMNSLKPEDTAVYYCADETRDRSTYFPGQAYDYWGQGTQVTVSS | low polyreactivity
QDQLVESGGGLVQAGGSLRLSCAASARIFPHYPMGWYRQAPGKERELVATITSGGRTNYADSVKGRFTISRDNAKNTVYLQMNSLKPEDTAVYYCAVDTWGSSWYDLFRETSDYWGHGTQVTVSS | low polyreactivity
QDQLVESGGGLVQAGGSLRLSCAASGFIFARYVMGWYRPAPGKERELVASITGSGVSTYYADSVKGRFTISRDNAKNTVYLQMNSLKPEDTAVYYCATRVYRRYYLNSWYNYWGQGTQVTVSS | high polyreactivity
QDQLVESGGGLVQAGGSLRLSCAASGFIFDDNAMGGYRQAPGKERELVAAITSGGGSTYYADSVKGRFTISRDNAKYTVYLQMNSLKPEDTAVYYCNAVPSQHDEFDYWGQGTQVTVSS | low polyreactivity
QDQLVESGGGLVQAGGSLRLSCAASGFIFDDNAMGWSRQAPGKERELVAAITSGGGSTYYAVSVKGRFTISRDNAKNTVYLQMNSLKPEDTAVYYCNAVPSQHDEFDYWGQGTQVTVSS | low polyreactivity
QDQLVESGGGLVQAGGSLRLSCAASGFIFGNYALGWYRQAPGKERELVATITWRGGSTYYADSVKGRFTISRDNAKNTVYLQMNSLKPEDTAVYYCARPYASYSSFYYYGYWGQGTQVTVSS | high polyreactivity
QDQLVESGGGLVQAGGSLRLSCAASGFIFGRYTMGWYRQAPWKERELVAAISGSDVSTYYADSVKGRFTISRDNAKNTVYIQMNSLKPEDTAVYYCAADAPWAYYEYDYWGQGTQVTVSS | low polyreactivity
QDQLVESGGGLVQAGGSLRLSCAASGFIFYFYAMVWYRQAPGKERELVAAISSGGSTNYADSVKGRFTISRDNAKNTVYLQMNSLKPEDTAVYYCNKGGYYKYFLNDYNYWGQGTQVTVSS | low polyreactivity
QDQLVESGGGLVQAGGSLRLSCAASGFILGLNAMGWYRQAPGKEREFVADISWSGDSTYYADSVKGRFTISRDNAKNTVYLQMNSLKPEDTAFYYCAAVPYYNWGYYYWGQGTQVTVSS | low polyreactivity
QDQLVESGGGLVQAGGSLRLSCAASGFIYFQYAMGWYRQAPGKERELVAAISGSGVTTYYADSVKGRFTISRDNAKYTVYLQMNSLKPEDTAVYYCNAALRWKYDWGQGTQVTVSS | low polyreactivity
QDQLVESGGGLVQAGGSLRLSCAASGFTFGTYAMGWYRQAPGKERELVAAISARGGSTYYADSVKGRFTISRDNAKNTVYLQMNSLKPEDTAVYYCAAYYGRHVTPPTGYDYWGQGTQVTVSS | high polyreactivity
QDQLVESGGGLVQAGGSLRLSCAASGFTFGWYAMGWYRQAPGKERELVAAITSRGGSTYYPDSVKGRFTISRDNAKNTVYLQMNSLKPEDTAVYYCAALYGWSGYDYWGQGTQVTVSS | high polyreactivity
QDQLVESGGGLVQAGGSLRLSCAASGFTFHNNVMGWYRQAPGKERELVATISKSGGSTYYADSVKGRITISRDNAKNTVYLQMNSLKPEDTAVYYCARRYRDYGRYGYWGQGTQVTVSS | high polyreactivity
QDQLVESGGGLVQAGGSLRLSCAASGFTFRAYTMGWYRQAPGKERELVAAITYSGGRTYYADSVKGRFTISRDNAKKTVNLQMNSLNPEDTAVYYCAKRGWALSEYDYWGQGTQVTVSS | high polyreactivity
QDQLVESGGGLVQAGGSLRLSCAASGFTFTWNAMGWYRQAPGKERELVAGITRGGSTNYADSVKGRFTISRDNAKNTVYLQMNSLKPEDTAVYYCNVSFYFHHAGYDYWGQGTQVTVSS | low polyreactivity

Sequence | polyreactivity (PSR sort gate)
QDQLVESGGGLVQAGGSLRLSCAASGFTFYSYAMGWYRQAPGKEREFVATITSSGGSTYYADSVKGRFTISRDTAKNTVYLQINSLNTEDTAVYYCAKDRYLYYRRRGQYDYWGQGTQVTVSS | high polyreactivity
QDQLVESGGGLVQAGGSLRLSCAASGFTFYTNVMGWYRQAPGKERELVAAINSGGSTNYADSVKGRFTISRDNAKNTVYLQMNSMKPEDTAVYYCNKSGTEIGYDYWGQGTQVTVLS | low polyreactivity
QDQLVESGGGLVQAGGSLRLSCAASGFTLSINAMGWYRQAPGKERELVAGISWSGGSTYYADSVKGRFTISRDNAKNTVYLQMNSLKPEDTAVYYCNADIYPDRYGSTNYDFNYWGQGTQVTVSS | low polyreactivity
QDQLVESGGGLVQAGGSLRLSCAASGHIFPYNAMGWYRQAPGKEREIVAASSFRGGSTYYADSVKGRFTISRDNAKNTVYLQMNSLKPEDTAVDYCAKRSYPWGQGTQVTVSS | low polyreactivity
QDQLVESGGGLVQAGGSLRLSCAASGIIFDVYAMGWYRPAPWNERELVAGITIGDITYYADSVKGRFTISRDNAKNTVYLQMNSLKPEDTAVYYCAADSYYYQTAYDYWGQGTQVTVSS | low polyreactivity
QDQLVESGGGLVQAGGSLRLSCAASGIIFGAYAMGWYRQAPGKERELVAAISQSGGSTYYADSVKGRFTISRDNAKITVYLQMNSLKPEDTAVYYCNVDPDVILVTSYDYWGQGTQVTVSS | low polyreactivity
QDQLVESGGGLVQAGGSLRLSCAASGIIFKYYAMGWYRQAPGKERELVAAITSGGSTNYADSVKGRFTISRDNAKNTVYLQMNSLKPEDTAVYYCAKRFYYRNRFDYWGHGTQVTVSS | low polyreactivity
QDQLVESGGGLVQAGGSLRLSCAASGIIYLTYAMGRYRQEPGKERELVATITSGGRTIYADSVKGRFTISLDNAKNTVYLQMNRLKPVDTAVYYCNALRYYHYDYWGQGTQVTVSS | high polyreactivity
QDQLVESGGGLVQAGGSLRLSCAASGINLSAYAMGWYRQAPGKERELVARISRSGGRTYYADSVKGRFTISRDNAKNTVYLQRNSLKQDDTAVYYCAADYTYGFGLYFGFGYWGQGTKVTVSS | high polyreactivity
QDQLVESGGGLVQAGGSLRLSCAASGITFYRYAMGWYRQAPGKERDLVAAITTSDTSTYYADSVKGRFTISRDNAKNTVYLQMNSLKPEDTAVYYCATDVVNIAPAEYDYWGQGTQVTVSS | low polyreactivity
QDQLVESGGGLVQAGGSLRLSCAASGITSSMNSMGWYRQAPGKERELVAAISWRGGSTYYADSVKGRFTISRDNAKNTVYLQLNSLKPEDTAVYYCAVRGKFDYWGQGTQVTVSS | high polyreactivity
QDQLVESGGGLVQAGGSLRLSCAASGLIFDSYAMGWYRQAPGKERELVAAITYTGGSTYYADSVKGRFTISRDNAKNTVYLQMNSLKPEDTAVYYCAADSPGPWRYDYWGQGTQVTVSS | high polyreactivity
QDQLVESGGGLVQAGGSLRLSCAASGLIFGYYAMGWYRQAPGKERELVAVISYSGGSTYYADSVKGRYTISRDNAKNTVYFQMNSMKPEDTAVYYCNTYRAYYRHTKEYGYWGQGTLVTVSS | high polyreactivity
QDQLVESGGGLVQAGGSLRLSCAASGLIFYGYVMGWYRQAPGKERELVAGISRNSGSTYYADSVKGRFTISRDNAKNTVYLQMNSLKPEDTAVYYCAALKFEAWAGEDYWGQGTQVTVSS | low polyreactivity
QDQLVESGGGLVQAGGSLRLSCAASGLTFAIYAMGCYRPAPGKERELVAGITWNTGRTYYADSVKGRFTISRDNAKNTVYLQMNSLNPEDTAVYYFAGRFVSRSVRGEATKYDYWGQGTQVTVSS | high polyreactivity
QDQLVESGGGLVQAGGSLRLSCAASGNNFFPYAMGWYRQAPGTEREFVAAINWSGGSTYYADSVKGRFTISRDNAKNTVYLQMNSLKPEDTAVYYCAASSGKWGHGYWGQGTQVTVSS | high polyreactivity
QDQLVESGGGLVQAGGSLRLSCAASGNTFNRYAKGWYRQAPGQERELVAAITSDGSTNYADSVKGRFTISRDNAKNTVYIQKNSMKPEDTAVYYCAAEHSGYPVAFYITGYGYDYCGQGTQVTVSS | low polyreactivity
QDQLVESGGGLVQAGGSLRLSCAASGNTFYVNVMGWYRQPPGKVREFVAAISTRGVSTSYADSVKGRFTISRDIAMNTVYLQMNSLKPEDTAVYYCAASFRRPEPKGTTYGYWGQGTQVTVSS | high polyreactivity
QDQLVESGGGLVQAGGSLRLSCAASGNTYLNAMGWYRQAPAKEREMVAAISKGGADTYYADSVKGRFTISRDNAKYTVYLQMNSLKPEDTAVYYCNADYWFRFGSSVDQVTEDYWGQGTQVTVSS | low polyreactivity
QDQLVESGGGLVQAGGSLRLSCAASGPIFLVKTMGCYIQAPGKERELVADITWRGGDTYYADSVKGRFTISRDNAKNTDYLQMNSLKPEDTAVYYCAARGLGYGYERYRLGYWGQGTQVTVSS | high polyreactivity
QDQLVESGGGLVQAGGSLRLSCAASGRIFAPNAMGWYRQAPGKERELVAAITYSGTSTYADSVKGRFTISRDNAKNTVYLQMNSLKPEDTAVYYCAAEGSGVYYHSYDYWGQGTQVTVSS | low polyreactivity

From the nanobody polyreactivity screen of Harvey et al. (2022)
